The values below come from article PMC5462994.

Experiment [1] has as its target Recombinant M.tb H37Rv GAPDH, wild type (Mycobacterium tuberculosis H37Rv) (UniProt P9WN83). As to the kind of experiment: ELISA; solid phase binding assay: 2 ug/well GAPDH coated on polystyrene wells in PBS pH 7.4; 7.5-1,000 nM biotinylated Lf in PBS with 1% fish skin gelatin, 25°C, 2 h; detected with anti-biotin; one-site specific binding fit. A general note: ELISA stands for enzyme-linked immunosorbent assay.

Experiment [2] has as its target Transferrin (Homo sapiens) (UniProt P02787). The settings on record: cited from earlier work.
UniProt P02787, sequence (P02787 20-698): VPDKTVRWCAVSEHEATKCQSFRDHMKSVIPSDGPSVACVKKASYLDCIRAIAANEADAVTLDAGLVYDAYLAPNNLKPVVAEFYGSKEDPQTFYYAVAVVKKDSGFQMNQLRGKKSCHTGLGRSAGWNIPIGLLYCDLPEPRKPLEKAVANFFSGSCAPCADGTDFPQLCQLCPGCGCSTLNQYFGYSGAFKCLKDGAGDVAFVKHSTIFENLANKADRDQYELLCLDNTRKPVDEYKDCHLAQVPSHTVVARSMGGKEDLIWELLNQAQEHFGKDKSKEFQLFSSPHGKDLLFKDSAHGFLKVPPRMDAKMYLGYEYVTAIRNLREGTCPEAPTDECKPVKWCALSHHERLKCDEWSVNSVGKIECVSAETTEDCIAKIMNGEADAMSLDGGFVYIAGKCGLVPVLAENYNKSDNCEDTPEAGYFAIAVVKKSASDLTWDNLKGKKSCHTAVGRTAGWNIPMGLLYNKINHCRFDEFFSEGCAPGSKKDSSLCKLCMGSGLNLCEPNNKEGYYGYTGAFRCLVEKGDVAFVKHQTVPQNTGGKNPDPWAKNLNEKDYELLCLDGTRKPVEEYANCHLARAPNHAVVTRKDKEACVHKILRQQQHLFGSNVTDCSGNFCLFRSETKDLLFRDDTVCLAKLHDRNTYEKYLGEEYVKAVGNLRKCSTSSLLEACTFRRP

GAPDH, sequence (P9WN83 whole entry): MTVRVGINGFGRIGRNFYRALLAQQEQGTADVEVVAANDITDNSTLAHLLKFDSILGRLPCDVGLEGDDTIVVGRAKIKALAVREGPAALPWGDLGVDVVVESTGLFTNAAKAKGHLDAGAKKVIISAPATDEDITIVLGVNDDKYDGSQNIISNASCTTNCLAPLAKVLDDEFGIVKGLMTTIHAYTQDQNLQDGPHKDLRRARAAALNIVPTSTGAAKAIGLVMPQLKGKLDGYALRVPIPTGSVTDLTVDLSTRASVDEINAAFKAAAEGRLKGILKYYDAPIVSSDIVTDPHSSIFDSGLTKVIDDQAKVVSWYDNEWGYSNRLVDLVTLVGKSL

As for “Biotinylated human lactoferrin (natural protein)”, the Kd in experiment [1] came to 31.7 nM. GAPDH (from UniProt P9WN83): in experiment [2], the Kd is 160 nM.

What is called Kd is the free concentration of one partner at which half of the binding sites on the other are occupied at equilibrium, for simple one-to-one binding.
